Molecular target: the molecule itself
Experiment: cryo-EM structure; 2D class averages of endophilin-only coat on lipid tubules: 11 µM protein, DOPS liposomes (0.5 g/l), GTPase buffer, 30 min room temperature

B1: Rat endophilinA1 (natural protein, UniProt O35179 1-352, looked up)
chain: MSVAGLKKQFHKATQKVSEKVGGAEGTKLDDDFKEMERKVDVTSRAVMEIMTKTIEYLQPNPASRAKLSMINTMSKIRGQEKGPGYPQAEALLAEAMLKFGRELGDDCNFGPALGEVGEAMRELSEVKDSLDMEVKQNFIDPLQNLHDKDLREIQHHLKKLEGRRLDFDYKKKRQGKIPDEELRQALEKFDESKEIAESSMFNLLEMDIEQVSQLSALVQAQLEYHKQAVQILQQVTVRLEERIRQASSQPRREYQPKPRMSLEFATGDGTQPNGGLSHTGTPKPAGVQMDQPCCRALYDFEPENEGELGFKEGDIITLTNQIDENWYEGMLHGQSGFFPINYVEILVALPH
notes: Rat endophilinA1, wild type and full-length; source: E. coli, pGEX-6P vector, purified (glutathione Sepharose, PreScission cleavage)
- binding result: binds

From publication PMC5663480, “Structural inhibition of dynamin-mediated membrane fission by endophilin” (eLife, 2017)
